Measured values: article PMC6017737, “Functional Impact of the N-terminal Arm of Proline Dehydrogenase from Thermus thermophilus” (Molecules : A Journal of Synthetic Chemistry and Natural …, 2018)
Where a chain is given by its changes, count along the chain named. Names and notes keep the numbering of the source.

B1: MBP-TtProDH ΔAB (MBP-TtProDH lacking helices αA and αB) (domain or fragment, Thermus thermophilus)
chain: KGLVRRYVAGETLEEALKAAEALEREGVHAILDLLGEMVRTEEEARAFQRGLLELVWALAGKPWPKYISLKLTQLGLDLSEDLALALLREVLREAEPRGVFVRLDMEDSPRVEATLRLYRALREEGFSQVGIVLQSYLYRTEKDLLDLLPYRPNLRLVKGAYREPKEVAFPDKRLIDAEYLHLGKLALKEGLYVAFATHDPRIIAELKRYTEAMGIPRSRFEFQFLYGVRPEEQRRLAREGYTVRAYVPYGRDWYPYLTRRIAERPENLLLVLRSLVSGLE
notes: Proline dehydrogenase (TtProDH), Thermus thermophilus, lacking helices αA and αB; C-terminal tail of TtProDH (part of helix α8), residues 288-309 as printed; not shown: MBP, N-terminal, kept
B2: MBP-TtProDH ΔAB Y35F (domain or fragment, Thermus thermophilus)
chain: B1 chain with Y7F
notes: Proline dehydrogenase (TtProDH), Thermus thermophilus, lacking helices αA and αB, with Y35F in helix αC; C-terminal tail of TtProDH (part of helix α8), residues 288-309 as printed; Identical subunits by denaturing MS; not shown: MBP, N-terminal, kept
B3: MBP-TtProDH ΔAB V32D (domain or fragment, Thermus thermophilus)
chain: B1 chain with V4D
notes: Proline dehydrogenase (TtProDH), Thermus thermophilus, lacking helices αA and αB, with V32D in helix αC; C-terminal tail of TtProDH (part of helix α8), residues 288-309 as printed; lacking in a part of the preparation; The preparation is a mixture: partially intact and partially cleaved before R288 (two subunit masses, 73.0 and 75.5 kDa); Mainly dimers by SEC, tetramers and dimers by …
B4: MBP-TtProDH ΔAB V36D (domain or fragment, Thermus thermophilus)
chain: B1 chain with V8D
notes: Proline dehydrogenase (TtProDH), Thermus thermophilus, lacking helices αA and αB, with V36D in helix αC; C-terminal tail of TtProDH (part of helix α8), residues 288-309 as printed; lacking in a part of the preparation; The preparation is a mixture: partially intact and partially cleaved before R288 (two subunit masses, 73.0 and 75.5 kDa); Mainly dimers by SEC, tetramers and dimers by …
B5: MBP-TtProDH ΔABC (MBP-TtProDH lacking helices αA, αB and αC) (domain or fragment, Thermus thermophilus, UniProt Q72IB8 38-287, looked up)
chain: GETLEEALKAAEALEREGVHAILDLLGEMVRTEEEARAFQRGLLELVWALAGKPWPKYISLKLTQLGLDLSEDLALALLREVLREAEPRGVFVRLDMEDSPRVEATLRLYRALREEGFSQVGIVLQSYLYRTEKDLLDLLPYRPNLRLVKGAYREPKEVAFPDKRLIDAEYLHLGKLALKEGLYVAFATHDPRIIAELKRYTEAMGIPRSRFEFQFLYGVRPEEQRRLAREGYTVRAYVPYGRDWYPYLT
notes: Proline dehydrogenase (TtProDH), Thermus thermophilus, lacking the whole N-terminal arm; PDB 5M42)'; the construct encodes up to residue 309, but the observed species is C-terminally truncated, cleaved before Arg288 (residues 288-309 removed); The difference of the predicted masses of ΔAB and ΔABC (75.5 against 74.4 kDa) fits a start at G38; not shown: MBP, N-terminal, kept
B6: MBP-TtProDH variant EE (MBP-TtProDH with Phe10 and Leu12 replaced by Glu) (enzyme, Thermus thermophilus)
chain: MNLDLAYRSEVEGVAGHPQVERLIKHRAKGLVRRYVAGETLEEALKAAEALEREGVHAILDLLGEMVRTEEEARAFQRGLLELVWALAGKPWPKYISLKLTQLGLDLSEDLALALLREVLREAEPRGVFVRLDMEDSPRVEATLRLYRALREEGFSQVGIVLQSYLYRTEKDLLDLLPYRPNLRLVKGAYREPKEVAFPDKRLIDAEYLHLGKLALKEGLYVAFATHDPRIIAELKRYTEAMGIPRSRFEFQFLYGVRPEEQRRLAREGYTVRAYVPYGRDWYPYLTRRIAERPENLLLVLRSLVSGLE
notes: Proline dehydrogenase (TtProDH), Thermus thermophilus, from its start to residue 287; C-terminal tail of TtProDH (part of helix α8), residues 288-309 as printed; The last residues of the printed tail (LE) may stem from the construct and not from the natural protein (my surmise); also called MBP-TtProDH EE; not shown: MBP, N-terminal, kept
B7: MBP-TtProDH ΔA (MBP-TtProDH lacking helix αA) (domain or fragment, Thermus thermophilus)
chain: QVERLIKHRAKGLVRRYVAGETLEEALKAAEALEREGVHAILDLLGEMVRTEEEARAFQRGLLELVWALAGKPWPKYISLKLTQLGLDLSEDLALALLREVLREAEPRGVFVRLDMEDSPRVEATLRLYRALREEGFSQVGIVLQSYLYRTEKDLLDLLPYRPNLRLVKGAYREPKEVAFPDKRLIDAEYLHLGKLALKEGLYVAFATHDPRIIAELKRYTEAMGIPRSRFEFQFLYGVRPEEQRRLAREGYTVRAYVPYGRDWYPYLTRRIAERPENLLLVLRSLVSGLE
notes: Proline dehydrogenase (TtProDH), Thermus thermophilus, lacking helix αA; C-terminal tail of TtProDH (part of helix α8), residues 288-309 as printed; Cloned with EcoRI and HindIII into pBAD-MBP; not shown: MBP, N-terminal, kept

What was measured:
MBP-TtProDH EE = molecular target: T1, MBP-TtProDH EE (Thermus thermophilus, UniProt Q72IB8, F10E/L12E, form not given); assay: residual proline:DCPIP activity after incubation; flavin absorption spectra; assay type: biochemical; conditions: covalent; suicide inhibitor, flavin N(5)-Lys99 adduct; 40 µM enzyme, pH 7.4, 25 °C
T1 construct: gene TT_C1214; full-length, Phe10 and Leu12 replaced by Glu; N-terminal MBP tag kept; E. coli TOP10; tetramer; FAD

MBP-TtProDH ΔAB [1] = molecular target: T2, MBP-TtProDH ΔAB (Thermus thermophilus, UniProt Q72IB8, V36D, form not given)
T2 construct: gene TT_C1214
T2 sequence (Q72IB8 29-307 V36D, form open): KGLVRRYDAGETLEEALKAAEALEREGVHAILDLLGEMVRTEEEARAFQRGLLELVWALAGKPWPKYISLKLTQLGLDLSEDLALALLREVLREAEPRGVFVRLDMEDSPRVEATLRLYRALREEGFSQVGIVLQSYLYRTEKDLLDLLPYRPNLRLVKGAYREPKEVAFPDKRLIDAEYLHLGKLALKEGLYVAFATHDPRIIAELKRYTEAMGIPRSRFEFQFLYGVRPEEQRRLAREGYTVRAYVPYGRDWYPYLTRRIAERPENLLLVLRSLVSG

MBP-TtProDH ΔA = molecular target: T3, MBP-TtProDH ΔA (Thermus thermophilus, UniProt Q72IB8); assay: residual proline:DCPIP activity after incubation; flavin absorption spectra; assay type: biochemical; conditions: covalent; suicide inhibitor, flavin N(5)-Lys99 adduct; 40 µM enzyme, pH 7.4, 25 °C
T3 construct: gene TT_C1214; lacks N-terminal helix αA; start 19 (QVERLIKHRAKG...) derived from printed primer; N-terminal MBP tag kept; E. coli TOP10; tetramer; FAD

MBP-TtProDH ΔAB [2] = molecular target: T4, MBP-TtProDH ΔAB (Thermus thermophilus, UniProt Q72IB8); assay: as above; assay type: biochemical; conditions: covalent; suicide inhibitor, flavin N(5)-Lys99 adduct; 40 µM enzyme, pH 7.4, 25 °C
T4 construct: gene TT_C1214; lacks N-terminal helices αA and αB; start 29 (KGLVRRYVAG...) derived from printed primer and V32/Y35/V36 numbering; N-terminal MBP tag kept; E. coli TOP10; tetramer; FAD

MBP-TtProDH ΔAB [3] = molecular target: T5, MBP-TtProDH ΔAB (Thermus thermophilus, UniProt Q72IB8, V32D, form not given)
T5 construct: gene TT_C1214
T5 sequence (Q72IB8 29-307 V32D, form open): as the sequence (Q72IB8 29-307 V36D, form open) above, with V4D, D8V counted along it

[4] = molecular target: the molecule itself; assay: native MS; nanoflow ESI-MS of the native MBP-fused variants; source backing pressure 7.8 mbar, cone voltage 100-150 V
[5] = molecular target: the molecule itself; assay: SEC; analytical gel filtration on Superdex 200 of each MBP-fused variant alone, as described in ref. 19
[6] = molecular target: the molecule itself; assay: SEC; 20 µM EE and 20 µM ΔABC mixed in 50 mM sodium phosphate pH 7.4, incubated at room temperature overnight, then Superdex 200 gel filtration; SDS-PAGE of the fractions

Molecule	stoichiometry N [4]	stoichiometry N [5]	further results
C#CCNCC(=O)O [N-propargylglycine]			% residual activity after 90 min at 2.5 mM (MBP-TtProDH EE): ~ 13%; % residual activity after 90 min at 2.5 mM (MBP-TtProDH ΔAB [1]): 63%; % residual activity after 90 min at 2.5 mM (MBP-TtProDH ΔA): For ΔA and ΔAB the activity loss is even more pronounced; % residual activity after 90 min at 2.5 mM (MBP-TtProDH ΔAB [2]): For ΔA and ΔAB the activity loss is even more pronounced; % residual activity after 90 min at 2.5 mM (MBP-TtProDH ΔAB [3]): 30%
B1	2	4	
B2		4	
B3	4	2	
B4	4	2	
B5	4	2	
B6			stoichiometry N [6]: 4
B7	2	4	
